The chains are these.
B1: human Ube2T (enzyme, UniProt Q9NPD8 1-197, looked up)
chain: MQRASRLKRELHMLATEPPPGITCWQDKDQMDDLRAQILGGANTPYEKGVFKLEVIIPERYPFEPPQIRFLTPIYHPNIDSAGRICLDVLKLPPKGAWRPSLNIATVLTSIQLLMSEPNPDDPLMADISSEFKYNKPAFLKNARQWTEKHARQKQKADEEEMLDNLPEAGDSRVHNSTQKRKASQLVGIEKKFHPDV
B2: human FANCL RING domain (residues 289-375) (domain or fragment, UniProt Q9NW38 289-375, looked up)
chain: EIDFPARAILEKSDFTMDCGICYAYQLDGTIPDQVCDNSQCGQPFHQICLYEWLRGLLTSRQSFNIIFGECPYCSKPITLKMSGRKH

Experiment [1] has as its target human FANCL RING domain (residues 289-375) (human) (UniProt Q9NW38). Put plainly: ITC.
For experiment [2], the target named is B2. As to the kind of experiment: SEC.
Experiment [3] deals with B1. Put plainly: ITC. In general terms: In ITC the heat of successive injections is recorded.

By Kd is commonly meant a measure of binding affinity in units of concentration. Read a high Kd as a looser complex. One may read the stoichiometry N as a count of units in the complex or per binding partner.

In the case of “Ube2T-F63A (from UniProt Q9NPD8 1-197) (enzyme)”, the Kd in experiment [1] is 5000 nM.
With B1, the “stoichiometry N” value in experiment [2] is 1.
As to B2, in experiment [3], the Kd came to 454 nM.

The values above are taken from article PMC3173227 (The Journal of Biological Chemistry, 2011).
